Reference: US20020103123A1
Ends that are not written are not given here.

Legend:
[1] = target: T1, rat Y4 receptor (rat), Q63447; assay: 125I-PYY displacement, COS-7 membranes; settings: remark: other sources report otherwise
T1 chain: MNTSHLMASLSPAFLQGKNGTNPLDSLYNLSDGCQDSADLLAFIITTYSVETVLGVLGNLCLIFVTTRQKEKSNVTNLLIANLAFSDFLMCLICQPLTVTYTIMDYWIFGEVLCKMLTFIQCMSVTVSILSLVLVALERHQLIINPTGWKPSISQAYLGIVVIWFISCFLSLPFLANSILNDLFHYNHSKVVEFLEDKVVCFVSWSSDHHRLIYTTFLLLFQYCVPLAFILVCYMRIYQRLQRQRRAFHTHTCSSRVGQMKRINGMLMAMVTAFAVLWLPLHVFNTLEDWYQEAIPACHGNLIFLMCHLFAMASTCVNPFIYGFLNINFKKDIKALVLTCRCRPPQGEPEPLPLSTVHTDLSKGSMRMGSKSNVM

[2] = target: T2, rat Y2 receptor (rat), Q9ERC0; assay: 125I-PYY displacement, COS-7 membranes; settings: remark: other sources report otherwise
T2 chain: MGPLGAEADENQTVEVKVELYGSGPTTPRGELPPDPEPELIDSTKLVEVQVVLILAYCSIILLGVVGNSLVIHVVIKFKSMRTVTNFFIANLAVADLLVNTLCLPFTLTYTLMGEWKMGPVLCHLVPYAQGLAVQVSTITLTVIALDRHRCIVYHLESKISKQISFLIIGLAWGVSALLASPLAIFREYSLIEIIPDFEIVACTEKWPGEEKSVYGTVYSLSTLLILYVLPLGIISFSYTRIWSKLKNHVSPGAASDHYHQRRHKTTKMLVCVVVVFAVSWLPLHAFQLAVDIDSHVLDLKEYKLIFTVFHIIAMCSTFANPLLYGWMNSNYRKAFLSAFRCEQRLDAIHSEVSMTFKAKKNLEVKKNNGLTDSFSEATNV

[3] = target: human hippocampal Y5 receptor (human)
human hippocampal Y5 receptor (human), sequence (chain, as listed by the source): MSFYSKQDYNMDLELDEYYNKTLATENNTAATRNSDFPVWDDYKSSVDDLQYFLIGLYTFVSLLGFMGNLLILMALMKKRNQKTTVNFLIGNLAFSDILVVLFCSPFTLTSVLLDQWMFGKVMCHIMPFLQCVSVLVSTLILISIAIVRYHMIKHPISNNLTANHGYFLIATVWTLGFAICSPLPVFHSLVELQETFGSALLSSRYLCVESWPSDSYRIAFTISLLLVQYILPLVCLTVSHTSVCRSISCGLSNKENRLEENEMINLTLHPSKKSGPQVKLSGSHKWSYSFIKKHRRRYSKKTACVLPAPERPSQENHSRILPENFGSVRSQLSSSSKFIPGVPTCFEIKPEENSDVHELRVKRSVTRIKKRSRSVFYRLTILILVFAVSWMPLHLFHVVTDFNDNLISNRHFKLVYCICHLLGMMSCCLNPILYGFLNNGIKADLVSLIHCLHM

[4] = target: T3, rat hypothalamic Y5 receptor (rat)
T3 sequence: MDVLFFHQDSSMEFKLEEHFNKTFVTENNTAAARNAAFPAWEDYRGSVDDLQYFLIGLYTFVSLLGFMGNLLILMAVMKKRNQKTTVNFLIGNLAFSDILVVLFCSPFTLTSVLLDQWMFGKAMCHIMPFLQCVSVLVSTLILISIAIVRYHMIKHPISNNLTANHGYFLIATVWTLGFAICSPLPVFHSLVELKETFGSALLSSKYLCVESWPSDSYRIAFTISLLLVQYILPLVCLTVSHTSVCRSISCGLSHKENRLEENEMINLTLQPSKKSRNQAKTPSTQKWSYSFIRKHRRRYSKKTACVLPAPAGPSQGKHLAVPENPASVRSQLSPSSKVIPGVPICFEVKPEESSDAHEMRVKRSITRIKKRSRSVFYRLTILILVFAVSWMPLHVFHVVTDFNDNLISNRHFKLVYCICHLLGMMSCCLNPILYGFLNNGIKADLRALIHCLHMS

[5] = target: T3, rat hypothalamic Y5 receptor (rat); remark: listed apart in the source

PAEDLARYYSALRHYINLITRQRY (ends and bridges not checked) [porcine NPY13-36, P01304]
Ki [1]: 140 nM

HYINLITRQRY (ends and bridges not checked) [porcine NPY26-36, P01304]
Ki [2]: > 830 nM

APLEPEYPGDNATPEQMAQYAAELRRYINMLTRPRY [bovine PP]
inhibition of forskolin-stimulated cAMP accumulation, EC50 [3]: 4 nM | inhibition of forskolin-stimulated cAMP accumulation, EC50 [4]: 5.7 nM

APLEPMYPGDYATHEQRAQYETQLRRYINTLTRPRY [rat PP]
inhibition of forskolin-stimulated cAMP accumulation, EC50 [4]: 130 nM

FLRF-NH2 [FLRF-amide]
maximal suppression of cAMP relative to that produced by human NPY [5]: 42% | inhibition of forskolin-stimulated cAMP accumulation, EC50 [4]: 13000 nM
